Among the data in paper PMC9352680, “A comprehensive thermodynamic model for RNA binding by the Saccharomyces cerevisiae Pumilio protein PUF4” are Kd values, retold here.

As a reminder, the Kd is the equilibrium constant for the complex coming apart. A lower Kd goes with a tighter complex.

For this data set, the target named is T1, PUF4 RNA-binding domain (Saccharomyces cerevisiae, UniProt P25339 537-888).
T1 sequence: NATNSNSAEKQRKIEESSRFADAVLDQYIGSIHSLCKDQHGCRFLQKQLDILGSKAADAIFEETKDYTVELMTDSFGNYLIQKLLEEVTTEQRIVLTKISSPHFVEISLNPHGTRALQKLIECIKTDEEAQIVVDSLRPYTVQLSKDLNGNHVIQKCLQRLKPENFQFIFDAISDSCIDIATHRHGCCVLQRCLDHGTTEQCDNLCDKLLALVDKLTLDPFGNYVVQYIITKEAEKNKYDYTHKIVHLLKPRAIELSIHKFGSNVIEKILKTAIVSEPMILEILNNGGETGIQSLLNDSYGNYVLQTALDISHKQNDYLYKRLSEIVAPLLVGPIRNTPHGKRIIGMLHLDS
As to the kind of experiment: Mg; RNA-MaP; 20 mM Na-HEPES pH 7.4, 30 mM KOAc, 0.75 mM MgCl2, 0.1% Tween-20, 5% glycerol, 0.1 mg/mL BSA, 2 mM DTT; 25 C; 0.0125-409.6 nM protein. To be noted: tags: N-His6-TEV cleaved; C-SNAP kept, Cy3B-labelled; label: tethered on chip by stalled RNA polymerase.

On to UCUCUUUGUAUAUUCUCUAUCUCUU (ssRNA) [Ie_S1_P4E.1_K4.1_C4.1_H4.1_A4.1_F4.1_[+8CTCT]_T4.1], for which the affinity, expressed as Kd, was 7.11 nM. UCUCUUUGUAUAUCCCUUAUCUCUU (ssRNA) [Ie_S1_P4E.1_K4.1_C4.1_H4.1_A4.1_[+7CCCT]_F4.1_T4.1]: binding was put at a Kd of 23.4 nM. Molecule UCUCUUUGUAUAUUACCUCUUCUCUU (ssRNA) [Ie_S1_P4E.1_K4.1_C4.1_H4.1_A4.1_F4.1_[+9CCTCT]_T4.1] returned a Kd of 1.58 nM. In turn, UCUCUUUGUAUAUCUCUCUAUCUCUU (ssRNA) [Ie_S1_P4E.1_K4.1_C4.1_H4.1_A4.1_[+7CTCTC]_F4.1_T4.1] registered a Kd of 15.9 nM. Compared with the last molecule, the Kd is about 10-fold higher. UCUCUUUGUAUAUUAUCUCUUCUCUU (ssRNA) [Ie_S1_P4E.1_K4.1_C4.1_H4.1_A4.1_F4.1_[+9TCTCT]_T4.1] returned a dissociation constant (Kd) of 0.824 nM. As for UCUCUUUGUAUAUUACUUCUCUU (ssRNA) [Ie_S1_P4E.1_K4.1_C4.1_H4.1_A4.1_F4.1_[+9CT]_T4.1], the dissociation constant Kd worked out at 0.578 nM.

B1: Ib_S2_P3E.1_K3.1_C3.1_H3.1_[T1C]_A3.1_F3.1_[T7C]_T3.1 (ssRNA)
RNA: UUUGAUUAAUAUGAUAUCGUUCUUUCUCGUAUACAUUCUUUCUCGAUAUCAUAUUAAUCUUU
Take B1: the Kd amounted to 649 nM. This Kd lies about 1100-fold higher than the previous one.

B2: Ib_S2_P3E.1_K3.1_C3.1_H3.1_[G2C]_A3.1_F3.1_[T7A]_T3.1 (ssRNA)
RNA: UUUGAUUAAUAUGAUAUCGUUCUUUCUUCUAUAAAUUCUUUCUCGAUAUCAUAUUAAUCUUU
B2: the Kd is > 2300 nM.

B3: Ib_S2_P3E.1_K3.1_C3.1_H3.1_[T1C]_A3.1_F3.1_[T7A]_T3.1 (ssRNA)
RNA: UUUGAUUAAUAUGAUAUCGUUCUUUCUCGUAUAAAUUCUUUCUCGAUAUCAUAUUAAUCUUU
As for B3, the dissociation constant (Kd) was > 2300 nM.

B4: Ib_S2_P3E.1_K3.1_C3.1_H3.1_[A4G]_A3.1_F3.1_[T7A]_T3.1 (ssRNA)
RNA: UUUGAUUAAUAUGAUAUCGUUCUUUCUUGUGUAAAUUCUUUCUCGAUAUCAUAUUAAUCUUU
B4 came in with a dissociation constant (Kd) of 35.3 nM. Molecule UCUCUUUGUAUAUCCUCUUAUCUCUU (ssRNA) [Ie_S1_P4E.1_K4.1_C4.1_H4.1_A4.1_[+7CCTCT]_F4.1_T4.1] registered a Kd of 31.7 nM. Regarding UCUCUUUGUAUAUUACCUCUCUCUU (ssRNA) [Ie_S1_P4E.1_K4.1_C4.1_H4.1_A4.1_F4.1_[+9CCTC]_T4.1], binding was put at a Kd of 0.706 nM. Consider UCUCUUUGUAUAUUAUCUCUCUCUU (ssRNA) [Ie_S1_P4E.1_K4.1_C4.1_H4.1_A4.1_F4.1_[+9TCTC]_T4.1], for which the dissociation constant Kd was 0.601 nM. UCUCUUUGUAUAUUUCUAUCUCUU (ssRNA) [Ie_S1_P4E.1_K4.1_C4.1_H4.1_A4.1_[+7TTC]_F4.1_T4.1]: the affinity, expressed as Kd, was 5.38 nM. The molecule UCUCUUUGUAUAUUAUUCUCUU (ssRNA) [Ie_S1_P4E.1_K4.1_C4.1_H4.1_A4.1_F4.1_[+9T]_T4.1] returned a Kd of 0.531 nM. In turn, UCUCUUUGUAUAUUCCCUAUCUCUU (ssRNA) [Ie_S1_P4E.1_K4.1_C4.1_H4.1_A4.1_F4.1_[+8CCCT]_T4.1] yielded a Kd of 6.32 nM. As for UCUCUUUGUAUAUCCCUAUCUCUU (ssRNA) [Ie_S1_P4E.1_K4.1_C4.1_H4.1_A4.1_[+7CCC]_F4.1_T4.1], the figure is 31.9 nM; as for UCUCUUUGUAUAUUUCUCUAUCUCUU (ssRNA) [Ie_S1_P4E.1_K4.1_C4.1_H4.1_A4.1_F4.1_[+8TCTCT]_T4.1], 6.66 nM. For UCUCUUUGUAUAUUUCCUAUCUCUU (ssRNA) [Ie_S1_P4E.1_K4.1_C4.1_H4.1_A4.1_[+7TTCC]_F4.1_T4.1] the value was 6.97 nM; for UCUCUUUGUAUAUUCCUCUAUCUCUU (ssRNA) [Ie_S1_P4E.1_K4.1_C4.1_H4.1_A4.1_F4.1_[+8CCTCT]_T4.1], 6.71 nM. For UCUCUUUGUAUAUUACUCUCUCUCUU (ssRNA) [Ie_S1_P4E.1_K4.1_C4.1_H4.1_A4.1_F4.1_[+9CTCTC]_T4.1] the value was 0.699 nM; for UCUCUUUGUAUAUUUCAUCUCUU (ssRNA) [Ie_S1_P4E.1_K4.1_C4.1_H4.1_A4.1_F4.1_[+8TC]_T4.1], 5.5 nM. In turn, UCUCUUUGUAUAUUAUCUUCUCUU (ssRNA) [Ie_S1_P4E.1_K4.1_C4.1_H4.1_A4.1_F4.1_[+9TCT]_T4.1] gave an equilibrium dissociation constant (Kd) of 0.632 nM. As for UCUCUUUGUAUAUUUCCUUAUCUCUU (ssRNA) [Ie_S1_P4E.1_K4.1_C4.1_H4.1_A4.1_[+7TTCCT]_F4.1_T4.1], the figure is 3.91 nM; as for UCUCUUUGUAUAUUAUUCCUCUCUU (ssRNA) [Ie_S1_P4E.1_K4.1_C4.1_H4.1_A4.1_F4.1_[+9TTCC]_T4.1], 0.476 nM. As for UCUCUUUGUAUAUUUUCCAUCUCUU (ssRNA) [Ie_S1_P4E.1_K4.1_C4.1_H4.1_A4.1_F4.1_[+8TTCC]_T4.1], the dissociation constant (Kd) is 5.8 nM. Molecule UCUCUUUGUAUAUUCUCUCAUCUCUU (ssRNA) [Ie_S1_P4E.1_K4.1_C4.1_H4.1_A4.1_F4.1_[+8CTCTC]_T4.1] yielded a dissociation constant (Kd) of 5.64 nM. With UCUCUUUGUAUAUUCUCAUCUCUU (ssRNA) [Ie_S1_P4E.1_K4.1_C4.1_H4.1_A4.1_F4.1_[+8CTC]_T4.1], the dissociation constant Kd was 10.8 nM. Compared with the last molecule, the Kd is about 1.9-fold higher. For the molecule UCUCUUUGUAUAUUACUCUUCUCUU (ssRNA) [Ie_S1_P4E.1_K4.1_C4.1_H4.1_A4.1_F4.1_[+9CTCT]_T4.1], the Kd was 0.906 nM. UCUCUUUGUAUAUUUUCAUCUCUU (ssRNA) [Ie_S1_P4E.1_K4.1_C4.1_H4.1_A4.1_F4.1_[+8TTC]_T4.1] had a dissociation constant Kd of 6.76 nM. Consider UCUCUUUGUAUAUUAUCCUCUCUU (ssRNA) [Ie_S1_P4E.1_K4.1_C4.1_H4.1_A4.1_F4.1_[+9TCC]_T4.1], for which the Kd worked out at 0.48 nM. UCUCUUUGUAUAUUAUCUCUCUU (ssRNA) [Ie_S1_P4E.1_K4.1_C4.1_H4.1_A4.1_F4.1_[+9TC]_T4.1] yielded a Kd of 0.435 nM.

On to UCUCUUUGUAUAUUCCUCAUCUCUU (ssRNA) [Ie_S1_P4E.1_K4.1_C4.1_H4.1_A4.1_F4.1_[+8CCTC]_T4.1], for which the affinity, expressed as Kd, was 6.83 nM. Molecule UCUCUUUGUAUAUUAUUCUCUCUU (ssRNA) [Ie_S1_P4E.1_K4.1_C4.1_H4.1_A4.1_F4.1_[+9TTC]_T4.1] came in with a Kd of 0.488 nM. The molecule UCUCUUUGUAUAUUACCUUCUCUU (ssRNA) [Ie_S1_P4E.1_K4.1_C4.1_H4.1_A4.1_F4.1_[+9CCT]_T4.1] had a Kd of 0.795 nM. Regarding UCUCUUUGUAUAUUAUUUCUCUU (ssRNA) [Ie_S1_P4E.1_K4.1_C4.1_H4.1_A4.1_F4.1_[+9TT]_T4.1], the Kd turned out to be 0.545 nM. On to UCUCUUUGUAUAUUACCCUCUCUU (ssRNA) [Ie_S1_P4E.1_K4.1_C4.1_H4.1_A4.1_F4.1_[+9CCC]_T4.1], for which the Kd stood at 1.11 nM.

The molecule UCUCUUUGUAUAUCCUCUAUCUCUU (ssRNA) [Ie_S1_P4E.1_K4.1_C4.1_H4.1_A4.1_[+7CCTC]_F4.1_T4.1] had a dissociation constant (Kd) of 25.3 nM. For the molecule UCUCUUUGUAUAUUACCUCUCUU (ssRNA) [Ie_S1_P4E.1_K4.1_C4.1_H4.1_A4.1_F4.1_[+9CC]_T4.1], binding was characterised by a dissociation constant (Kd) of 0.729 nM. Against the preceding molecule, the Kd is about 35-fold lower. UCUCUUUGUAUAUUACUCUCUCUU (ssRNA) [Ie_S1_P4E.1_K4.1_C4.1_H4.1_A4.1_F4.1_[+9CTC]_T4.1] showed a Kd of 1.09 nM.

UCUCUUUGUAUAUUUUCCUAUCUCUU (ssRNA) [Ie_S1_P4E.1_K4.1_C4.1_H4.1_A4.1_F4.1_[+8TTCCT]_T4.1]: binding was put at a Kd of 5.96 nM. In the case of UCUCUUUGUAUAUUCCUAUCUCUU (ssRNA) [Ie_S1_P4E.1_K4.1_C4.1_H4.1_A4.1_F4.1_[+8CCT]_T4.1], the affinity, expressed as Kd, was 8.2 nM. The Kd values of the last two molecules are within 1.5-fold of each other.

In the case of UCUCUUUGUAUAUUAUUUUCUCUU (ssRNA) [Ie_S1_P4E.1_K4.1_C4.1_H4.1_A4.1_F4.1_[+9TTT]_T4.1], binding was put at a Kd of 0.453 nM.
